{
  "source": "patent US20040115741A1",
  "biological_target": "HM1.24 antigen (human) (UniProt Q10589)",
  "sequence (Q10589 1-161 limits assumed)": "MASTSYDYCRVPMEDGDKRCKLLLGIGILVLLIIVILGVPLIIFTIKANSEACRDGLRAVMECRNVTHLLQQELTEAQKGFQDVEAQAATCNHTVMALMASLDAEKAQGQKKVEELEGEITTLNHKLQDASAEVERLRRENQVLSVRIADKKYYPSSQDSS",
  "test": "flow cytometry on KPMM2 cells, control antibody",
  "data": [
    {"substance": "control antibody human IgG1 (hIgG1), Human IgG1, Kappa (SIGMA Cat. No. I3889)", "values": [
      {"measurement": "Geo Mean of fluorescence intensity", "value": 17.3}
    ]}
  ]
}
